In the nanobody polyreactivity screen of Harvey et al. (2022):

Experiment: yeast display, Sf9 membrane polyspecificity reagent, FACS + sequencing; frameworks hold sequencing errors
Summary of the method: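 After 36–48 hours of galactose induction, yeast (Saccharomyces cerevisiae BJ5465) displaying a synthetic nanobody library were stained at 4 °C for 1 hour with 10% biotinylated, detergent-solubilized Sf9 membrane reagent. Streptavidin microbeads enriched the stained cells before FACS sorting into low and high (top ~1%) gates on anti-HA and streptavidin fluorescence. Each clone's polyreactivity label reflects its gate of origin.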

Row | Sequence | polyreactivity (PSR sort gate)
1 | QVQLVESGGGLVQAGGSLRLSCAASGNIFLYYAMGWYIPAPGKEREFVSDIDSSGASTYYADSVKGRFTISRDNAKNTVYLQMNSLKPEDTAVYYCAAEFHWWYAGYDYGYWGQGTQVTVSS | low polyreactivity
2 | QVQLVESGGGLVQAGGSLRLSCAASGSIFYLYAMGWYRQAPGKERELVASISSDGSTNYADSVKGRFTISRDNAKNTVYLQMNSLKPEDTAVYYCAADEGTGQASLSSNLYDYWGQGTQVTVSS | low polyreactivity
3 | QVQLVESGGGLVQAGVSLRLSCAASGIIFRGNAMGWYRQAPGKERELVASICRRGGSTYYADSVKGRFTISRDNAKNTVYLQMNSLKPEDTAVYYCNAYGSTYVYGPYDYWGQGTQVTVSS | high polyreactivity
4 | QVQLVESGGGLVQAGGSLRLSCAASGRIFSEYAMGWYRQAPGKERELVASISTSGGSTYYADSVKGRFTISRDNAKNTVYLQMNSLKPEDTAVYYCNVAYSRYPSYTYGYDHWGQGTQVTVSS | high polyreactivity
5 | QVQLVESGGGLVQAGGSLRLRCAAAGSIFKLNAMGWYRQAPGKERELVAVIYKSAGRTYYADSVKGRFTISRDNAKNTVYLQMNSLKTEDTAVYYCNAVSKLAVNLDYWGQGTQVTVSS | high polyreactivity
6 | QVQLVESGGGLVQAGGSLRLSCAASGSIVDFYAMGWYRQSPGTERELVAAIDDIDDSTYYADSVKGRFTISRDNAKNTVYLQMNSLKPEDTAVYYCAAELRPGYRSSYGLIYDYWGQGTQVTVSS | low polyreactivity
7 | QVQLVESGGGLVQAGGSLRLSCAASGITFGRNTMGWYRQPPGKERELVAAIDSGGNTYADSVKGRFTISRDNAKNTVYLQMNSLKPEDTAVYYCAVDGGEFSSYGYWVQGTQVTVSS | low polyreactivity
8 | QVQLEESGGGLVQAGGSLRLSCAASGSIFYSNAMGWYRQAPGKEREFVAAISAGGGSTYYADSVKGRFTISRDNEKNTVYLQMNSLKPEDTSVYYCAAQPYNIIYPYDYWGQGTQVTVSS | low polyreactivity
9 | QVQLVESGGGLVQAGGSLRLSCAASGSIFGDYAMGWYRQAPGKEREFVAGITRRGGRTYYADSVKGRFTISRDNAKNTVYLQMHSLKPEDTAVYYCNAVYSSSLRSKYDYWGQGTQVTVSS | high polyreactivity
10 | QVQLVESGGGLFRAGGSLRLICAASGITFYGYAMGWYRQAPGKERELVAAITWSGGRTYYADSVKGRFTISRDNAKNTVYLQMNSMKPEDTAVYYCARRTWHSVGYWGQGTQVTVSS | high polyreactivity
11 | QVQLVESGVGIVQAGGSLRLSCAASGRIFFTYAMVWYRQAPGKERELVASITGSGGSTYYADSVKGRFTISRDNAKNTVYLQMNSLKPEDTAVYYCAAALFRRQLYRKFYYWGQGTQVSVSS | low polyreactivity
12 | QVQLVESGGGLVQAGGSLRLSCAASGSTLEFNARGWSRQAPGKERELVAVINRSDGSTYYADSVKGRFTISRDNAKNTVYLQMNSLKPEDTAVYYCAADRHQVSVISTEDYWGQGTQVTVSS | low polyreactivity
13 | QVQLVESGGGLVQAGGSLRLSCAASGIIFINYVKGWYRQAPGKESELVAAITGSGSSTYYADSVKGRFTISRDNAKNTVYLQMNSLKPEDTAVYYCAADNPRVRFLYYYWGQGTQVTVSS | high polyreactivity
14 | QVQLVDSGGGLVQAGGSLRLSCAASGRTIGINPMGWYRQAPGKERELVASITRSVGSTYDADSVKGRFTISRDNAKNTVYLQMNSLKPEDTEVYYCAAEYYTWSYYTKYYYWGQGTQVTVSS | high polyreactivity
15 | QVQIVESGGGLVQAGGSLRVSCAASGSIYTYNGMGWYRQAPWKERELDAAISASGGRTYYADSVKGRYTISRDNAKNTVYLQMNRLKPEDNAVYYCAARILVSGLSRFDYWGQGTQVTVSA | high polyreactivity
16 | QVQLVESVGGLVQAGGSLRLSCAASGNTFRRNVMGLYRQAPGKERELVAAINRGGSTYYADSVKGRFTISRDNAKNTVYLQMNSLKPEDTAVYYCNAVTRGYYHEMEYWGQGTQVTVSS | high polyreactivity
17 | QVQLVESGGGLVQAGGSLRLSCAASGRIFYYYAMGWYRQAPGKERELVAAISSIGGSTYADSVKGRFTISRDNAKNTVYLQMNSLKPEDTAVYYCAADGFKRLYTQVAHVRYDYWGQGTQVTVSS | low polyreactivity
18 | QVQLVESGGGLVQAGGSLRLSCAASGSTFFEYTMGWYRRAPGKEREFVADIRGRDGSTSYADSVKGRFTISRDNAKNTVYLQMNSLKPEDTAVYYCATEYFPQYQSTGWYDYWGQGTQVTVSS | low polyreactivity
19 | QVQLVESRGGLVQAGGSLRLSCAASGSIFYVYAMGWYRQAPAKERELVAAITSSGTTNYADSVKGRFTIPRDNAKNTVYLQMNSLKPEDTAVYYCAADPDSGQVPFDYWGQGTQVTVSS | low polyreactivity
20 | QVQLVESGGGLVQAGGSLRLSCAASGRNLPSYAMGWYRQAPGKERELVAAISGSGGRTYYSDSVKGRFTISRDNAKNTVYLQMNSLKQEDTAVYYCAARQDDYGKINYYWGQGTQVTVSS | high polyreactivity
21 | QVQLVESGGGLVQAGGSLRLSCAASGSIFRYYAMGWYRPATGKERELVADITSSGGSTYYADSVKGRFTISRDNPKNTVYLQMNSLKREDTAVYYCASLYWFYVYPFTEYDYWGQGTQVTVSS | low polyreactivity
22 | QVQLVESGGGLVQAGGSLRLSCAASGRTFGRYVMGWYIQAPGKERELVARISSAGGTNYADSVKGRFTISRDNAKNTVYLQMNSLKPEDTAVYYCNFTRYWRAHLGYYWGQGTQVTVSS | high polyreactivity

Row | Sequence | polyreactivity (PSR sort gate)
23 | QVHLVESGGGLVQAGGSLRLSCAASGSTFQTNAMGWSRQAPGKERELVAAISRTGGRSNYADSVKGRFTISRDNAKNTVYLQMHSLKPEDTAVYDCAAGVPKTGQAGYDYWGQGTQVTVSS | high polyreactivity
24 | QVQLVESVGALVQAGGSLRLSCAASGSTFRRNAMGWYRQAPGKERELVATITTRGGSTYYADSVKGRFTLSRDNAKNTVNLQMNSLKPEDTAVYYCAADRRSGYSRSKYGRGDYWGQGTQVTVSS | high polyreactivity
25 | QVQLVDSGGGLVQAGGSLRLSCAASGRNFNEYAMGWSRPAPGKERELVAAISSSGDSTYYADSVKGRFTISRDNAKNTVYLQMNSLKPEDTAVYYGAAQVVVWYPYVYFPGSDYWGQGTQVTVSS | low polyreactivity
26 | QVQLVESGGGLVQAGGSLRLSCAASGSTFSRYAMGWYRQAPGKERELVAAISTRGGSTRYADSVKGRFTISRDNAKNTVYLQMNSLKPEDTAVYYCAALGQGRTSATSFVDYEYWGQGTQVTVSS | high polyreactivity
27 | QVQLVESGGGLVQAGGSLRLSCAASGSIFEQNAMGWYRQAPGKERELVAGINEGGGSTYYADSVKGRFTISRDNAKNTVYLQMNSLKPEDTAVYYCAATLGSRWAIYDYWGQGTQVTVSS | high polyreactivity
28 | QVQLVESGGGLVQAGGSLRLSCAASGSRNAMGWYRQEPGKERQFVAAITWNGGSTYYADSVKGRFTITRDNAKNTVYLQMNSLKPEDTAVYYCAADVVFPFSVGYDYWGQGTQVTVSS | low polyreactivity
29 | QVQLVESGGVLVQAGGSLRLSCADSGSIFILYAMGWYRHAPGKESEFVAAITYRGGSTKYADSVKGRFTISRDNAKNTVYLQMNRLKPEDTAVYYCAAGGYWRSPCGSVSRYGYWGQGTQVTVSS | high polyreactivity
30 | QVQLVESGGGLVQAGGSLRLRCDASGRTFFKNAMGWYRQAPGKERELVAAITSTGGRTYYADSVKGRFPISRDTAKNNVYVEMNSLKPEDTAVYYCAASNFYSGYYYWRQGTQVTVSS | high polyreactivity
31 | QVQLVESGGGLVQAGGSLRLSCAASGSTFQYNAMGGYRQAPGKERELVASISWSGGSTYYADSVKGRFTISRDNAKNTVYLQMNSLKPEVTAVYYCAADWSDQRDYWGQGTQVTVSS | low polyreactivity
32 | QVQLVESGGGLVQAGGSLRLSCAASGGISLYYVMGWYRQAPGKERELVADISADDSTNYADSVKGRFTISRDNAKNTVYLQMNSLKPEDTAVYYCAAVPGLFYLPYDYWGQGTQVTVSS | low polyreactivity
33 | QVQLVESGGGLVQAGGSLRLSCAASGSTFKLYAMGWYRPAPGKERELVAAISYRGGTTYYADSVKGRFTISRDNAKNSVYLQMNSLKPEDTAVYYCAAGWRPRYLRDASKYDYWGQGTQVTVSS | low polyreactivity
34 | QVQLVESGGGLVQAGGSLRLSCAASGFTFGSYAMGWYRQAPGKERELVAAITWSGGSTYYADSVKGRFTISRDNAKNTVYLQMNSLKPEDTAVYYCNAEIRYYGYDYWGQGTQVTVSS | high polyreactivity
35 | QVQLVESGGGLVQAGGSLRLSCAASGRIFYYYDMGWYRQAPGKARELVAAITSAGITYYADSVKGRFTISRDNAKNTVYLQMNSLKPEDTAVYYCAVEFYDKRWPYRGGYWGQGTQVTVSS | low polyreactivity
36 | QVQLVESGGGLVQAGGSLRLSCAASGSTFARYAMGWYRQAPGKERELVASITTGGRTYYADSVKGRFTITRDNAKYTVYLQMNSLKPEDTPVYFCNVLRYRGYDYWGQGTQVTVSS | high polyreactivity
37 | QVHLVESGGGIDQAGGSLRLSCAASGSTFTNNTMGWYRPAPGKERELVAGITKSGGSTYYADSVKGRFTISRDNAKKTVYLQMNSLKPEDTAVYYCATSTSRRYGSRHNYWGQGTQVTVSS | high polyreactivity
38 | QVQLVESGGGLVQAGGSLRLSCAASGITFVYYAMGWYRQAPGKERELVASISSGGSTYYADSVKGRFTISRDNAKNTVYLQMNSLKPEDTAVYYCAAPTGWYPAYCEYEYWGQGTQVTVSS | low polyreactivity
39 | QVQLVESGGGLVQAGGSLRLSCAASGLIFDIYAMGWYRQAPGKERELVATISKRGGTTSYADSVKGRFTISRDNAKNTVYLQMNSLKPEDTAVYYCAATTLIAYDYWGQGTQVTVSS | high polyreactivity
40 | QVQLVESGGGLVQAGGSLRLSCAASGSIFGLYVMGWYRQAPGKERELVAAITGRGGSTYYADSVKGRFTISRDNAKNTVYLQMNSLKPEDTAVYYCAALRYTFAGRFDYWGQGTQVTVSS | high polyreactivity
41 | QVQLVESGGGLVQAGGSLRLSCAASGSIFHGYTMGWYIQSPGKERELVAAISRRGDSTYYADSVKGRFTISRDNAKNTVYLQMNSLKPEDTAVYYCATVFYRTRYVPYGYWGQGTQVTVSS | low polyreactivity
42 | QVQLVESGGGLVPAGGSLRLSCAASGFIFSRYDMGCYRQAPGKERELVAAIDWSGDSTYYADSVKGRFTISRDNAKNTVYFQMNSLKPEDTAVYYCAAGQDGDSDWGQGTQVTVSS | low polyreactivity
43 | QVQLVESGGGLVQAGGSLRLSCAASGSTFWLYAMGWYRQAPGKEREFVATISSSTTYYADSVKGRFTISRDNAKNTVYFQMNSLKPQDTAVYYCNAADYYSDVWSSVDYEGDYWGQGTQVTVSS | low polyreactivity
